Where a chain is given by its changes, count along the chain named. In names and notes the source's numbering stands.
B1: M45 (HC-E46K,E62K / LC-K45E) (antibody, human IgG1, kappa, V domains shown)
VH: QVQLVQSGAEVKKPGSSVKVSCKASGYAFTSYWMHWVRQAPGQGLKWMGQINPTTGRSQYNKKFKTRVTITADKSTSTAYMELSSLRSEDTAVYYCARWGLQPFAYWGQGTLVTVSS
VL: DIQMTQSPSFLSASVGDRVTITCKASQDVSTAVAWYQQKPGKAPELLIYSASYRYTGVPSRFSGSGSGTDFTLTISSLQPEDFATYYCQQHYSTPWTFGGGTKVEIKR
notes: IgG1-P238K; also called HC13/LC3
B2: M46 (HC-K74T / LC-K45E) (antibody, human IgG1, kappa, V domains shown)
VH: B1 VH with K46E, K62E, K74T
VL: B1 VL
notes: IgG1-P238K; also called HC14/LC3
B3: M48 (HC-K63Q / LC-K45E) (antibody, human IgG1, kappa, V domains shown)
VH: B1 VH with K46E, K62E, K63Q
VL: B1 VL
notes: IgG1-P238K; also called HC16/LC3
B4: M50 (HC-K12Q,K13Q / LC-K45Q,R54Q,R61Q) (antibody, human IgG1, kappa)
heavy: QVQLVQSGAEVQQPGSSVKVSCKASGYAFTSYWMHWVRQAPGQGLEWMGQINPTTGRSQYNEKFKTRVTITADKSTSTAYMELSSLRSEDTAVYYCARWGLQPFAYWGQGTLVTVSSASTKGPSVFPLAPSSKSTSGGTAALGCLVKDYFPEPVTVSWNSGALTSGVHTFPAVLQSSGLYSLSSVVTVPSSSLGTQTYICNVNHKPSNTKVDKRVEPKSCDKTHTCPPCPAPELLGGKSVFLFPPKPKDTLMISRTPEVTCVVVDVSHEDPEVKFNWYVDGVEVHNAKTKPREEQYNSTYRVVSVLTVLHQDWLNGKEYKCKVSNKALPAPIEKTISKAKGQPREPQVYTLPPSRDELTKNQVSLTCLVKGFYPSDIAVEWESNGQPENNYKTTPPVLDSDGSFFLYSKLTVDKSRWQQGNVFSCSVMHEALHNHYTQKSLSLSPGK
light: DIQMTQSPSFLSASVGDRVTITCKASQDVSTAVAWYQQKPGKAPQLLIYSASYQYTGVPSQFSGSGSGTDFTLTISSLQPEDFATYYCQQHYSTPWTFGGGTKVEIKRTVAAPSVFIFPPSDEQLKSGTASVVCLLNNFYPREAKVQWKVDNALQSGNSQESVTEQDSKDSTYSLSSTLTLSKADYEKHKVYACEVTHQGLSSPVTKSFNRGEC
notes: IgG1-P238K; also called HC2/LC4
B5: M51 (HC-K12Q,K13Q,K23Q / LC-K45Q,R54Q,R61Q) (antibody, human IgG1, kappa, V domains shown)
VH: B1 VH with K12Q, K13Q, K23Q, K46E, K62E
VL: B1 VL with E45Q, R54Q, R61Q
notes: IgG1-P238K; also called HC3/LC4
B6: M52 (HC-K12E / LC-K45Q,R54Q,R61Q) (antibody, human IgG1, kappa)
heavy: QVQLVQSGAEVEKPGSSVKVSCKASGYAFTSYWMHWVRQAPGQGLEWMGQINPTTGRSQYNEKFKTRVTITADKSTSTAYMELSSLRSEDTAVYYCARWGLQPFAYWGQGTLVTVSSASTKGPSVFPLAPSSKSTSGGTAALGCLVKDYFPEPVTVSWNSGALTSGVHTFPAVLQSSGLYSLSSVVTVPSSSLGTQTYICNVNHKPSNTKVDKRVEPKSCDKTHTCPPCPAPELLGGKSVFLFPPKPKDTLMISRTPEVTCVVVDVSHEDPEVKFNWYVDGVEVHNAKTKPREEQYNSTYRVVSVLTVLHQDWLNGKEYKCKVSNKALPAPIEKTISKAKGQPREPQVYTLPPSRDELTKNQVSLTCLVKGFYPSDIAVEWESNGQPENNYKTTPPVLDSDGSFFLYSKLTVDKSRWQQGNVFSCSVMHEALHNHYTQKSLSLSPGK
light: B4 light
notes: IgG1-P238K; also called HC4/LC4
B7: M55 (HC-K23E / LC-K45Q,R54Q,R61Q) (antibody, human IgG1, kappa)
heavy: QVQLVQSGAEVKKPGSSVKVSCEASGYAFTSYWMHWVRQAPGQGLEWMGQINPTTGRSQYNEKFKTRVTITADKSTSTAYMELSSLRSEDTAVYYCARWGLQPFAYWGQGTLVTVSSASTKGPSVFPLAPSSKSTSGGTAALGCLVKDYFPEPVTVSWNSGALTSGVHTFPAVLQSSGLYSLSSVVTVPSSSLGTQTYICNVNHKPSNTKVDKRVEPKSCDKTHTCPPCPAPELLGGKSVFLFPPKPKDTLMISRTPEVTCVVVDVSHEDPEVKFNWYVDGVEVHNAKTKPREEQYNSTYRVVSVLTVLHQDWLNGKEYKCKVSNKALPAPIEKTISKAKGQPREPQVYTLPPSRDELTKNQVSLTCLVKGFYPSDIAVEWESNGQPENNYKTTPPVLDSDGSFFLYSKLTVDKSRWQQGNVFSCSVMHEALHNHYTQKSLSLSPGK
light: B4 light
notes: IgG1-P238K; also called HC7/LC4
B8: M56 (HC-R38Q,K63Q,R67Q / LC-K45Q,R54Q,R61Q) (antibody, human IgG1, kappa, V domains shown)
VH: B1 VH with R38Q, K46E, K62E, K63Q, R67Q
VL: B1 VL with E45Q, R54Q, R61Q
notes: IgG1-P238K; also called HC8/LC4
B9: M57 (HC-K63Q,R67E / LC-K45Q,R54Q,R61Q) (antibody, human IgG1, kappa, V domains shown)
VH: B1 VH with K46E, K62E, K63Q, R67E
VL: B1 VL with E45Q, R54Q, R61Q
notes: IgG1-P238K; also called HC9/LC4
B10: M58 (HC-R67E / LC-K45Q,R54Q,R61Q) (antibody, human IgG1, kappa, V domains shown)
VH: B1 VH with K46E, K62E, R67E
VL: B1 VL with E45Q, R54Q, R61Q
notes: IgG1-P238K; also called HC10/LC4
B11: M59 (HC-R57E / LC-K45Q,R54Q,R61Q) (antibody, human IgG1, kappa, V domains shown)
VH: B1 VH with K46E, R57E, K62E
VL: B1 VL with E45Q, R54Q, R61Q
notes: IgG1-P238K; also called HC11/LC4
B12: M60 (HC-R57E,K74Q / LC-K45Q,R54Q,R61Q) (antibody, human IgG1, kappa, V domains shown)
VH: B1 VH with K46E, R57E, K62E, K74Q
VL: B1 VL with E45Q, R54Q, R61Q
notes: IgG1-P238K; also called HC12/LC4
B13: M61 (HC-E46K,E62K / LC-K45Q,R54Q,R61Q) (antibody, human IgG1, kappa, V domains shown)
VH: B1 VH
VL: B1 VL with E45Q, R54Q, R61Q
notes: IgG1-P238K; also called HC13/LC4
B14: M64 (HC-K63Q / LC-K45Q,R54Q,R61Q) (antibody, human IgG1, kappa, V domains shown)
VH: B1 VH with K46E, K62E, K63Q
VL: B1 VL with E45Q, R54Q, R61Q
notes: IgG1-P238K; also called HC16/LC4
B15: M65 (HC-wt / LC-R61Q) (antibody, human IgG1, kappa)
heavy: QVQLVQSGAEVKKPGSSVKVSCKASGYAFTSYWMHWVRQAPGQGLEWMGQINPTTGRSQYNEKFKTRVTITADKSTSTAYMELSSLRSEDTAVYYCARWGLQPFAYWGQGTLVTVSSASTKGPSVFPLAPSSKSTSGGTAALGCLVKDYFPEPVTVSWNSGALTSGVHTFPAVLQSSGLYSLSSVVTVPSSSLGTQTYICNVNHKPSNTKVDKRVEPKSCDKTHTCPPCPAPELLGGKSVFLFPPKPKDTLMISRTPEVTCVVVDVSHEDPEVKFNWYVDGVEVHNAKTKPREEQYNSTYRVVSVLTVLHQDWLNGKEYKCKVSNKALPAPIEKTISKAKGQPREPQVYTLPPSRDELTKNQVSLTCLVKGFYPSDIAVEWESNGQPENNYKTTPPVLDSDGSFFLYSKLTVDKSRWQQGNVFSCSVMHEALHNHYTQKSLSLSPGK
light: B4 light with Q45K, Q54R
notes: IgG1-P238K; also called HC1/LC5
B16: M66 (HC-K12Q,K13Q / LC-R61Q) (antibody, human IgG1, kappa)
heavy: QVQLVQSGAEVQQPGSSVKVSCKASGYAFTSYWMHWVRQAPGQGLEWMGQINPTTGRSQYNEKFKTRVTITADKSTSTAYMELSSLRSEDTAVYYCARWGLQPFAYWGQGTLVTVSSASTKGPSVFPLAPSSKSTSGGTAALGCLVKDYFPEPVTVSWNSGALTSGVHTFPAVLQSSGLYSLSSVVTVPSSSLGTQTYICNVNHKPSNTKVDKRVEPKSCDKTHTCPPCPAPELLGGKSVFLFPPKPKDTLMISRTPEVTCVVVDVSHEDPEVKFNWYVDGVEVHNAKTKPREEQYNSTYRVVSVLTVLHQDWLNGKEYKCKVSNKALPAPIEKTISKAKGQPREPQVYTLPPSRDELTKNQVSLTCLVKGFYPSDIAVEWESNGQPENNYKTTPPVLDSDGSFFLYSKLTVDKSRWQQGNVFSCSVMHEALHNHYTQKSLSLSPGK
light: B4 light with Q45K, Q54R
notes: IgG1-P238K; also called HC2/LC5
B17: M67 (HC-K12Q,K13Q,K23Q / LC-R61Q) (antibody, human IgG1, kappa, V domains shown)
VH: B1 VH with K12Q, K13Q, K23Q, K46E, K62E
VL: B1 VL with E45K, R61Q
notes: IgG1-P238K; also called HC3/LC5
B18: M68 (HC-K12E / LC-R61Q) (antibody, human IgG1, kappa)
heavy: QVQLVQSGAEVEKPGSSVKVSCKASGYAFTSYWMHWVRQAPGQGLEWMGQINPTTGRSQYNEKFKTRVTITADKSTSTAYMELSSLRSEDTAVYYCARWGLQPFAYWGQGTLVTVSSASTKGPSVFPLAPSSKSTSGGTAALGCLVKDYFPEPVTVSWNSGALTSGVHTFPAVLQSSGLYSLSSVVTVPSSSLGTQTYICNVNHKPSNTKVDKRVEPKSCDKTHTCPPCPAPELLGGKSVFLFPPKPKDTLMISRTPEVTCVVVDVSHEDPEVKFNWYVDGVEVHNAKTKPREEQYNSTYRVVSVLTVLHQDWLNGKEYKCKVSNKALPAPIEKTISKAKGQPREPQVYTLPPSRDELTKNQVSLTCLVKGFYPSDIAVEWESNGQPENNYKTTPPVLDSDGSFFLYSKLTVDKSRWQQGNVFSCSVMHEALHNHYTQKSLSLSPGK
light: B4 light with Q45K, Q54R
notes: IgG1-P238K; also called HC4/LC5
B19: M69 (HC-K12E,K13Q,K23E / LC-R61Q) (antibody, human IgG1, kappa)
heavy: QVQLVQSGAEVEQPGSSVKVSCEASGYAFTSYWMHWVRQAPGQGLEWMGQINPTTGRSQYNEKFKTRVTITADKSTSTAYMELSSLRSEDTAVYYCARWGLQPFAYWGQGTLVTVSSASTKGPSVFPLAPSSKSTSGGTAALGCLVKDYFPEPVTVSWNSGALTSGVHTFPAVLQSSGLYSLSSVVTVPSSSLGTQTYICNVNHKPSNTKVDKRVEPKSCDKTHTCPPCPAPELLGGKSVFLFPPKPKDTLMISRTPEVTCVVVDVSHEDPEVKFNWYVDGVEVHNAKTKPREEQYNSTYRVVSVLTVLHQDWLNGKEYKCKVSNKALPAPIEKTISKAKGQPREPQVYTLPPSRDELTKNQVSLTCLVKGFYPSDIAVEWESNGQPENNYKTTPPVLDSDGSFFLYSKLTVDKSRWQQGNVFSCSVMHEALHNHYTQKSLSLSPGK
light: B4 light with Q45K, Q54R
notes: IgG1-P238K; also called HC5/LC5
B20: M70 (HC-K12V,K19S,K23A / LC-R61Q) (antibody, human IgG1, kappa, V domains shown)
VH: B1 VH with K12V, K19S, K23A, K46E, K62E
VL: B1 VL with E45K, R61Q
notes: IgG1-P238K; also called HC6/LC5
B21: M71 (HC-K23E / LC-R61Q) (antibody, human IgG1, kappa)
heavy: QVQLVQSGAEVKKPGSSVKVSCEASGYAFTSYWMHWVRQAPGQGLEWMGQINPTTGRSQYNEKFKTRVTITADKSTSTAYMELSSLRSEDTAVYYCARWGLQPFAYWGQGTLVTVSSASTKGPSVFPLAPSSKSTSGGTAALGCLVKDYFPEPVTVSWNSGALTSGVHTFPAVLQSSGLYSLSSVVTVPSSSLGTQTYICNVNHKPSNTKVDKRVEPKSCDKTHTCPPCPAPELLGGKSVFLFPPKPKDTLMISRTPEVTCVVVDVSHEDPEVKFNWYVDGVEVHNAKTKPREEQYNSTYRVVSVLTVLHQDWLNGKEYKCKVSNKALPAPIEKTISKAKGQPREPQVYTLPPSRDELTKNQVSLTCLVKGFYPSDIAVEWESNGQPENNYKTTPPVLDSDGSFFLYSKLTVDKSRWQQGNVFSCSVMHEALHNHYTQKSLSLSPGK
light: B4 light with Q45K, Q54R
notes: IgG1-P238K; also called HC7/LC5
B22: M72 (HC-R38Q,K63Q,R67Q / LC-R61Q) (antibody, human IgG1, kappa, V domains shown)
VH: B1 VH with R38Q, K46E, K62E, K63Q, R67Q
VL: B1 VL with E45K, R61Q
notes: IgG1-P238K; also called HC8/LC5
B23: M73 (HC-K63Q,R67E / LC-R61Q) (antibody, human IgG1, kappa, V domains shown)
VH: B1 VH with K46E, K62E, K63Q, R67E
VL: B1 VL with E45K, R61Q
notes: IgG1-P238K; also called HC9/LC5
B24: M74 (HC-R67E / LC-R61Q) (antibody, human IgG1, kappa, V domains shown)
VH: B1 VH with K46E, K62E, R67E
VL: B1 VL with E45K, R61Q
notes: IgG1-P238K; also called HC10/LC5
B25: M75 (HC-R57E / LC-R61Q) (antibody, human IgG1, kappa, V domains shown)
VH: B1 VH with K46E, R57E, K62E
VL: B1 VL with E45K, R61Q
notes: IgG1-P238K; also called HC11/LC5
B26: M76 (HC-R57E,K74Q / LC-R61Q) (antibody, human IgG1, kappa, V domains shown)
VH: B1 VH with K46E, R57E, K62E, K74Q
VL: B1 VL with E45K, R61Q
notes: IgG1-P238K; also called HC12/LC5
B27: M77 (HC-E46K,E62K / LC-R61Q) (antibody, human IgG1, kappa, V domains shown)
VH: B1 VH
VL: B1 VL with E45K, R61Q
notes: IgG1-P238K; also called HC13/LC5
B28: M78 (HC-K74T / LC-R61Q) (antibody, human IgG1, kappa, V domains shown)
VH: B1 VH with K46E, K62E, K74T
VL: B1 VL with E45K, R61Q
notes: IgG1-P238K; also called HC14/LC5
B29: M79 (HC-R67Q / LC-R61Q) (antibody, human IgG1, kappa, V domains shown)
VH: B1 VH with K46E, K62E, R67Q
VL: B1 VL with E45K, R61Q
notes: IgG1-P238K; also called HC15/LC5
B30: M82 (HC-K12Q,K13Q / LC-K107Q,R108Q) (antibody, human IgG1, kappa)
heavy: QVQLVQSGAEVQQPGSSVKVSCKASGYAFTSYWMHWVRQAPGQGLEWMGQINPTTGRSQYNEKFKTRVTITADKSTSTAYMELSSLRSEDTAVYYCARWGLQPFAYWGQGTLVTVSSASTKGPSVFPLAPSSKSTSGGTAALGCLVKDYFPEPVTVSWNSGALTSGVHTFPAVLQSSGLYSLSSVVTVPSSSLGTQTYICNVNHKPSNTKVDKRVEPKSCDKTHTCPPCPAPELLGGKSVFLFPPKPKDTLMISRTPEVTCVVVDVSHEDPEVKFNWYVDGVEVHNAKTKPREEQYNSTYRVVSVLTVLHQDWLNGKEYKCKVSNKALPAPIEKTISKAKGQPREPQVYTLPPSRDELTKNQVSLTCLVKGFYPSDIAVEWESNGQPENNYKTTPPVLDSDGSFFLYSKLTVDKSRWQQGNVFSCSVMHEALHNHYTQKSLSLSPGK
light: B4 light with Q45K, Q54R, Q61R, K107Q, R108Q
notes: IgG1-P238K; also called HC2/LC6
B31: M83 (HC-K12Q,K13Q,K23Q / LC-K107Q,R108Q) (antibody, human IgG1, kappa)
heavy: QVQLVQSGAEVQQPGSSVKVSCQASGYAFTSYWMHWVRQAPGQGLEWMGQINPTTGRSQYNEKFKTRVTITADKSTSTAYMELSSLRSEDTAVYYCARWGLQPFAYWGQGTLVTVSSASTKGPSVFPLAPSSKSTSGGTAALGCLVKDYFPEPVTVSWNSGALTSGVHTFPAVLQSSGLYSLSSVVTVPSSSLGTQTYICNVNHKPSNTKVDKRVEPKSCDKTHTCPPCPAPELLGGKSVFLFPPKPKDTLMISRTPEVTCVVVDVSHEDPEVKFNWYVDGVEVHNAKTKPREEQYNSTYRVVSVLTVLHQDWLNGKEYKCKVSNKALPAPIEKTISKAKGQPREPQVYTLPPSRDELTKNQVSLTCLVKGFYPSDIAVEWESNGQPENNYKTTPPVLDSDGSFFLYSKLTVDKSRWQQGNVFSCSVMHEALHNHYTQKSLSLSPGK
light: B4 light with Q45K, Q54R, Q61R, K107Q, R108Q
notes: IgG1-P238K; also called HC3/LC6
B32: M84 (HC-K12E / LC-K107Q,R108Q) (antibody, human IgG1, kappa)
heavy: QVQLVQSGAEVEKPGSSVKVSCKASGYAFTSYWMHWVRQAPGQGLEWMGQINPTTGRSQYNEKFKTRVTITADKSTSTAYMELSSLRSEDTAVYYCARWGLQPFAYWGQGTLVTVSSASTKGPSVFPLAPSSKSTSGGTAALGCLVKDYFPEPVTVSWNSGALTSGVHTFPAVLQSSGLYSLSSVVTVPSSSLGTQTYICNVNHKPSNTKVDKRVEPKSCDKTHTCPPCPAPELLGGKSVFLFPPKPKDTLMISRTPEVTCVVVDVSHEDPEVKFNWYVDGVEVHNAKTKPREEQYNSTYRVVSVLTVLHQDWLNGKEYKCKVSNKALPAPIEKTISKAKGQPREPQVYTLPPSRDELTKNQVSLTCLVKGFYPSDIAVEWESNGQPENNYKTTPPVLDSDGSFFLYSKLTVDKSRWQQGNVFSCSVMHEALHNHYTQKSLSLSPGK
light: B4 light with Q45K, Q54R, Q61R, K107Q, R108Q
notes: IgG1-P238K; also called HC4/LC6

Biological target: T1, soluble human CD40 extracellular domain (human, UniProt P25942 21-193)
T1 construct: Produced in house; also called hCD40; soluble hCD40 extracellular domain
T1 sequence (P25942 21-193 limits assumed): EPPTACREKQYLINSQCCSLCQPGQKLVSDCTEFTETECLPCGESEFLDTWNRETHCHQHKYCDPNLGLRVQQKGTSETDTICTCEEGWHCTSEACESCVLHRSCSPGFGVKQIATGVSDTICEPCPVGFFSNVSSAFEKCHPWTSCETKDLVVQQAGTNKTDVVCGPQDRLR
Assay: SPR, Ab captured from supernatant on protein A, hCD40 ECD analyte
Procedure: The titer data (Table 21) were used to normalize the antibody concentration in each supernatant to 3 μg/ml, and these antibodies were captured out of the supernatants on a protein A CMS Series S sensor chip (GE Healthcare), and tested for binding to two concentrations (5 nM and 50 nM) of soluble hCD40 extracellular domain.
CD40 binding SPR of antibody supernatants: Surface plasmon resonance (SPR) studies were conducted on a BIAcore™ T200 instrument (GE Healthcare, Chicago Ill.). A Series S Protein A sensor chip (GE Healthcare, Chicago Ill.) was equilibrated with SPR running buffer of 10 mM NaPO₄, 130 mM NaCl, 0.05% tween 20, (PBS-T) pH 7.2 at 25° C. The 96 antibody supernatants were normalized to a concentration of 3 μg/ml by diluting with PBS-T using a PerkinElmer JANUS® G3 system (PerkinElmer, Akron, Ohio). After priming the system, the 3 μg/ml antibody samples were captured on the protein A surface for 30 s at 10 μl/min Binding of 50 nM and 500 nM human CD40 extracellular domain (produced in house) was evaluated using association time of 180 s at 30 μl/min, followed by a dissociation time of 180 s at 30 μl/min Regeneration between cycles was accomplished using two 15 s injections of 10 mM glycine pH 1.5. […] Data were analyzed using BIAcore™ T200 evaluation software by fitting to a 1:1 Langmuir model.

Row | Binder | Kd [nM]
1 | B1 | 8.8
2 | B2 | 3.9
3 | B3 | 3.8
4 | B4 | 2.5
5 | B5 | 2.9
6 | B6 | 2.6
7 | B7 | 3.5
8 | B8 | 2.5
9 | B9 | 2.5
10 | B10 | 2.1
11 | B11 | 9.5
12 | B12 | 14.7
13 | B13 | 7.5
14 | B14 | 3.3
15 | B15 | 4.3
16 | B16 | 3.6

Row | Binder | Kd [nM]
17 | B17 | 3.6
18 | B18 | 3.6
19 | B19 | 3.8
20 | B20 | 3.5
21 | B21 | 4.4
22 | B22 | 2.9
23 | B23 | 3
24 | B24 | 2.9
25 | B25 | 10.5
26 | B26 | 14.8
27 | B27 | 7.9
28 | B28 | 4
29 | B29 | 3.5
30 | B30 | 3.2
31 | B31 | 3.6
32 | B32 | 3.3
